Measurements taken from US20050288488.

Assays:
[1] = target: AhR-ARNT heterodimer (human AhR, human ARNT) (Homo sapiens) (UniProt P35869+P27540); experiment: cell_activity; conditions: yeast A303 lacZ reporter, average induction over background with bNF or aNF; ligand EC50 7.9e-8 M for bNF
[2] = system: LexA(1-202)-AhR N-delta-166 chimera (Escherichia coli? / Mus musculus?); experiment: cell_activity; conditions: yeast GRS4 lacZ reporter, average induction over background with bNF or aNF; ligand EC50 6.1e-8 M for bNF

AhR-ARNT heterodimer (human AhR, human ARNT) (Homo sapiens), sequence (P35869 whole entry, chain 1 of 2): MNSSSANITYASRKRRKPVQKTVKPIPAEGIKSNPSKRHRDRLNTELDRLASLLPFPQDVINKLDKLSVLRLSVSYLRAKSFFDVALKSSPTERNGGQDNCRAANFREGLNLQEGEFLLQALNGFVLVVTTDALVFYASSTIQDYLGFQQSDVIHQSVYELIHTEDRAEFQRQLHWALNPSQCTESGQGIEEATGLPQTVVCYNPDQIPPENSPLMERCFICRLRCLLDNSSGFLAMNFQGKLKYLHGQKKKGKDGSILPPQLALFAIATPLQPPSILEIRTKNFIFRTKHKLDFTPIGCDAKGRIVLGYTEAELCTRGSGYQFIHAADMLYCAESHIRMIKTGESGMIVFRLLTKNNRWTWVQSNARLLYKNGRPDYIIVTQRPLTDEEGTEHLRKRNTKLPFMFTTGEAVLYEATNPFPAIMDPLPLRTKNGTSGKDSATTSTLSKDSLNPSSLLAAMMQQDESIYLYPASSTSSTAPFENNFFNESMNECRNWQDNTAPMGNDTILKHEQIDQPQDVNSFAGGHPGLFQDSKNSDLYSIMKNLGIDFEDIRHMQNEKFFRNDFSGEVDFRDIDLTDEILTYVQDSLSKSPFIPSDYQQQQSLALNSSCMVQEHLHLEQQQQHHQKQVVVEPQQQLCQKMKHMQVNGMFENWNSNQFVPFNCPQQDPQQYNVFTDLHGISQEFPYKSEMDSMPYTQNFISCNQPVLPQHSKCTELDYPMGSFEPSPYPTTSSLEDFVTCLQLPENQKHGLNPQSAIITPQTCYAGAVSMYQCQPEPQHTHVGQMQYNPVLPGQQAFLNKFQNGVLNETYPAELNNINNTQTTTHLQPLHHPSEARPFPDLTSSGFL
AhR-ARNT heterodimer (human AhR, human ARNT) (Homo sapiens), sequence (P27540 whole entry, chain 2 of 2): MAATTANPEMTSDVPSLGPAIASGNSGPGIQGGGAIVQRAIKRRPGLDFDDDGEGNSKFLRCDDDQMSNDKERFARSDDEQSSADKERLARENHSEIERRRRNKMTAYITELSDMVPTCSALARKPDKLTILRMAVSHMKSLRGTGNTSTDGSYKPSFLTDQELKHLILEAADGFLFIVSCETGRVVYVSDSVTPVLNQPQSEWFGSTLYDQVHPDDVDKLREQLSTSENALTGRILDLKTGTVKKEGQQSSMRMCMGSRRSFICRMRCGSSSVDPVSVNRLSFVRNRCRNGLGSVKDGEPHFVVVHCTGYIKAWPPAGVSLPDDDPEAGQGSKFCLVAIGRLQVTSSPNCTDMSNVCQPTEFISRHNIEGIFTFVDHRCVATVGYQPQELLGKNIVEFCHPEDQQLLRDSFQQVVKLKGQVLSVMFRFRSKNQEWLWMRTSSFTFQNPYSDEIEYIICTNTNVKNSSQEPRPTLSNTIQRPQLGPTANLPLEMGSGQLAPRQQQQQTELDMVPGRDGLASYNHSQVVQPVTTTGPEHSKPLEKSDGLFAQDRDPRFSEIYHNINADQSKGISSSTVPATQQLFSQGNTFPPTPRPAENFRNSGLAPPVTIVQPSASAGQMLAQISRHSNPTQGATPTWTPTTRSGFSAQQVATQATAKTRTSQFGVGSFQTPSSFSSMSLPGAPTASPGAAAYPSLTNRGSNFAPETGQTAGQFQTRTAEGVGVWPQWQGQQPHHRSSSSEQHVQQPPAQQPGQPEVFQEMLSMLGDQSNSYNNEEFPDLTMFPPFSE

Row | Substance | activity [1] [fold] | activity [2] [fold]
1 | DRE2-DRE3 reporter (pDRE23-Z) | 12 | 
2 | eight LexA operator reporter (pSH18-34) |  | 90
